Test results published in patent US11130793B2, “GLP-1/GLP-2 dual agonists” (Zealand Pharma A/S, priority 2016, dated 2021).
Square brackets hold non-standard residues; d marks the D form. Aib = CC(C)(N)C(=O)O

Legend:
[1] = target: human glucagon-like peptide 1 receptor (GLP-1R) (human, UniProt P43220); assay: cell-based or functional assay
[2] = target: T1, human GLP-2 receptor (hGLP2-R) (human, UniProt O95838); assay: cell-based or functional assay
T1 sequence: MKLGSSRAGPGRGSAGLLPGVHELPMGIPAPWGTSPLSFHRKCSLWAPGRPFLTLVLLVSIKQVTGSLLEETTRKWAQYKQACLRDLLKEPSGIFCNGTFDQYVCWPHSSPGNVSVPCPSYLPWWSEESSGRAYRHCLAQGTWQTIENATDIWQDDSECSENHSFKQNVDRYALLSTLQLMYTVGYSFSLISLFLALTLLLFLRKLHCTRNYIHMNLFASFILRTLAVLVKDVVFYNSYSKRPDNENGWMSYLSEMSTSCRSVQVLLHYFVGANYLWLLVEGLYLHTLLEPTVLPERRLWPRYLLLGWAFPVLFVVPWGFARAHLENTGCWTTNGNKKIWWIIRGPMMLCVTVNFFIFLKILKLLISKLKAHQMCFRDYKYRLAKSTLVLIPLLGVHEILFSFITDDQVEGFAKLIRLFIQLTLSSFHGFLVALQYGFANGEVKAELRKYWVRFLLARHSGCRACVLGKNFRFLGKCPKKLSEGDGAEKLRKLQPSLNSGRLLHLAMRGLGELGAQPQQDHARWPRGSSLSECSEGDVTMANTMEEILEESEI

B1: Compound 21 (peptide)
peptide: H-H[Aib]EGTFTSELATILDEQAARDFIAWLHQHKITD-OH
SMILES: CC[C@H](C)[C@H](NC(=O)[C@H](Cc1ccccc1)NC(=O)[C@H](CC(=O)O)NC(=O)[C@H](CCCNC(=N)N)NC(=O)[C@H](C)NC(=O)[C@H](C)NC(=O)[C@H](CCC(N)=O)NC(=O)[C@H](CCC(=O)O)NC(=O)[C@H](CC(=O)O)NC(=O)[C@H](CC(C)C)NC(=O)[C@@H](NC(=O)[C@@H](NC(=O)[C@H](C)NC(=O)[C@H](CC(C)C)NC(=O)[C@H](CCC(=O)O)NC(=O)[C@H](CO)NC(=O)[C@@H](NC(=O)[C@H](Cc1ccccc1)NC(=O)[C@@H](NC(=O)CNC(=O)[C@H](CCC(=O)O)NC(=O)C(C)(C)NC(=O)[C@@H](N)Cc1c[nH]cn1)[C@@H](C)O)[C@@H](C)O)[C@@H](C)O)[C@@H](C)CC)C(=O)N[C@@H](C)C(=O)N[C@@H](Cc1c[nH]c2ccccc12)C(=O)N[C@@H](CC(C)C)C(=O)N[C@@H](Cc1c[nH]cn1)C(=O)N[C@@H](CCC(N)=O)C(=O)N[C@@H](Cc1c[nH]cn1)C(=O)N[C@@H](CCCCN)C(=O)N[C@H](C(=O)N[C@H](C(=O)N[C@@H](CC(=O)O)C(=O)O)[C@@H](C)O)[C@@H](C)CC
- EC50 GLP-1 (nM); cAMP AlphaScreen [1]: 0.049 nM
- EC50 GLP-2 (nM); cAMP AlphaScreen [2]: 0.11 nM

B2: Compound 23 (peptide)
peptide: H-H[Aib]EGSFTSELATILDEQAARDFIAWLYEHKITD-OH
SMILES: CC[C@H](C)[C@H](NC(=O)[C@H](Cc1ccccc1)NC(=O)[C@H](CC(=O)O)NC(=O)[C@H](CCCNC(=N)N)NC(=O)[C@H](C)NC(=O)[C@H](C)NC(=O)[C@H](CCC(N)=O)NC(=O)[C@H](CCC(=O)O)NC(=O)[C@H](CC(=O)O)NC(=O)[C@H](CC(C)C)NC(=O)[C@@H](NC(=O)[C@@H](NC(=O)[C@H](C)NC(=O)[C@H](CC(C)C)NC(=O)[C@H](CCC(=O)O)NC(=O)[C@H](CO)NC(=O)[C@@H](NC(=O)[C@H](Cc1ccccc1)NC(=O)[C@H](CO)NC(=O)CNC(=O)[C@H](CCC(=O)O)NC(=O)C(C)(C)NC(=O)[C@@H](N)Cc1c[nH]cn1)[C@@H](C)O)[C@@H](C)O)[C@@H](C)CC)C(=O)N[C@@H](C)C(=O)N[C@@H](Cc1c[nH]c2ccccc12)C(=O)N[C@@H](CC(C)C)C(=O)N[C@@H](Cc1ccc(O)cc1)C(=O)N[C@@H](CCC(=O)O)C(=O)N[C@@H](Cc1c[nH]cn1)C(=O)N[C@@H](CCCCN)C(=O)N[C@H](C(=O)N[C@H](C(=O)N[C@@H](CC(=O)O)C(=O)O)[C@@H](C)O)[C@@H](C)CC
- EC50 GLP-1 (nM); cAMP AlphaScreen [1]: 0.12 nM
- EC50 GLP-2 (nM); cAMP AlphaScreen [2]: 0.034 nM

B3: Compound 19 (peptide)
peptide: H-H[Aib]EGTFTSELATILDEQAARDFIAWLIAQKITD-OH
SMILES: CC[C@H](C)[C@H](NC(=O)[C@H](CC(C)C)NC(=O)[C@H](Cc1c[nH]c2ccccc12)NC(=O)[C@H](C)NC(=O)[C@@H](NC(=O)[C@H](Cc1ccccc1)NC(=O)[C@H](CC(=O)O)NC(=O)[C@H](CCCNC(=N)N)NC(=O)[C@H](C)NC(=O)[C@H](C)NC(=O)[C@H](CCC(N)=O)NC(=O)[C@H](CCC(=O)O)NC(=O)[C@H](CC(=O)O)NC(=O)[C@H](CC(C)C)NC(=O)[C@@H](NC(=O)[C@@H](NC(=O)[C@H](C)NC(=O)[C@H](CC(C)C)NC(=O)[C@H](CCC(=O)O)NC(=O)[C@H](CO)NC(=O)[C@@H](NC(=O)[C@H](Cc1ccccc1)NC(=O)[C@@H](NC(=O)CNC(=O)[C@H](CCC(=O)O)NC(=O)C(C)(C)NC(=O)[C@@H](N)Cc1c[nH]cn1)[C@@H](C)O)[C@@H](C)O)[C@@H](C)O)[C@@H](C)CC)[C@@H](C)CC)C(=O)N[C@@H](C)C(=O)N[C@@H](CCC(N)=O)C(=O)N[C@@H](CCCCN)C(=O)N[C@H](C(=O)N[C@H](C(=O)N[C@@H](CC(=O)O)C(=O)O)[C@@H](C)O)[C@@H](C)CC
- EC50 GLP-1 (nM); cAMP AlphaScreen [1]: 0.005 nM
- EC50 GLP-2 (nM); cAMP AlphaScreen [2]: 0.15 nM

B4: Compound 18 (peptide)
peptide: H-H[Aib]EGTFTSELATILDEQAARDFIAWLISHKITD-OH
SMILES: CC[C@H](C)[C@H](NC(=O)[C@H](Cc1ccccc1)NC(=O)[C@H](CC(=O)O)NC(=O)[C@H](CCCNC(=N)N)NC(=O)[C@H](C)NC(=O)[C@H](C)NC(=O)[C@H](CCC(N)=O)NC(=O)[C@H](CCC(=O)O)NC(=O)[C@H](CC(=O)O)NC(=O)[C@H](CC(C)C)NC(=O)[C@@H](NC(=O)[C@@H](NC(=O)[C@H](C)NC(=O)[C@H](CC(C)C)NC(=O)[C@H](CCC(=O)O)NC(=O)[C@H](CO)NC(=O)[C@@H](NC(=O)[C@H](Cc1ccccc1)NC(=O)[C@@H](NC(=O)CNC(=O)[C@H](CCC(=O)O)NC(=O)C(C)(C)NC(=O)[C@@H](N)Cc1c[nH]cn1)[C@@H](C)O)[C@@H](C)O)[C@@H](C)O)[C@@H](C)CC)C(=O)N[C@@H](C)C(=O)N[C@@H](Cc1c[nH]c2ccccc12)C(=O)N[C@@H](CC(C)C)C(=O)N[C@H](C(=O)N[C@@H](CO)C(=O)N[C@@H](Cc1c[nH]cn1)C(=O)N[C@@H](CCCCN)C(=O)N[C@H](C(=O)N[C@H](C(=O)N[C@@H](CC(=O)O)C(=O)O)[C@@H](C)O)[C@@H](C)CC)[C@@H](C)CC
- EC50 GLP-1 (nM); cAMP AlphaScreen [1]: 0.006 nM
- EC50 GLP-2 (nM); cAMP AlphaScreen [2]: 0.054 nM

B5: Compound 22 (peptide)
peptide: H-H[Aib]EGSFTSELATILDEQAARDFIAWLHAHKITD-OH
SMILES: CC[C@H](C)[C@H](NC(=O)[C@H](Cc1ccccc1)NC(=O)[C@H](CC(=O)O)NC(=O)[C@H](CCCNC(=N)N)NC(=O)[C@H](C)NC(=O)[C@H](C)NC(=O)[C@H](CCC(N)=O)NC(=O)[C@H](CCC(=O)O)NC(=O)[C@H](CC(=O)O)NC(=O)[C@H](CC(C)C)NC(=O)[C@@H](NC(=O)[C@@H](NC(=O)[C@H](C)NC(=O)[C@H](CC(C)C)NC(=O)[C@H](CCC(=O)O)NC(=O)[C@H](CO)NC(=O)[C@@H](NC(=O)[C@H](Cc1ccccc1)NC(=O)[C@H](CO)NC(=O)CNC(=O)[C@H](CCC(=O)O)NC(=O)C(C)(C)NC(=O)[C@@H](N)Cc1c[nH]cn1)[C@@H](C)O)[C@@H](C)O)[C@@H](C)CC)C(=O)N[C@@H](C)C(=O)N[C@@H](Cc1c[nH]c2ccccc12)C(=O)N[C@@H](CC(C)C)C(=O)N[C@@H](Cc1c[nH]cn1)C(=O)N[C@@H](C)C(=O)N[C@@H](Cc1c[nH]cn1)C(=O)N[C@@H](CCCCN)C(=O)N[C@H](C(=O)N[C@H](C(=O)N[C@@H](CC(=O)O)C(=O)O)[C@@H](C)O)[C@@H](C)CC
- EC50 GLP-1 (nM); cAMP AlphaScreen [1]: 0.28 nM
- EC50 GLP-2 (nM); cAMP AlphaScreen [2]: 0.042 nM

B6: Compound 20 (peptide)
peptide: H-H[Aib]EGTFTSELATILDEQAARDFIAWLIAYKITD-OH
SMILES: CC[C@H](C)[C@H](NC(=O)[C@H](CC(C)C)NC(=O)[C@H](Cc1c[nH]c2ccccc12)NC(=O)[C@H](C)NC(=O)[C@@H](NC(=O)[C@H](Cc1ccccc1)NC(=O)[C@H](CC(=O)O)NC(=O)[C@H](CCCNC(=N)N)NC(=O)[C@H](C)NC(=O)[C@H](C)NC(=O)[C@H](CCC(N)=O)NC(=O)[C@H](CCC(=O)O)NC(=O)[C@H](CC(=O)O)NC(=O)[C@H](CC(C)C)NC(=O)[C@@H](NC(=O)[C@@H](NC(=O)[C@H](C)NC(=O)[C@H](CC(C)C)NC(=O)[C@H](CCC(=O)O)NC(=O)[C@H](CO)NC(=O)[C@@H](NC(=O)[C@H](Cc1ccccc1)NC(=O)[C@@H](NC(=O)CNC(=O)[C@H](CCC(=O)O)NC(=O)C(C)(C)NC(=O)[C@@H](N)Cc1c[nH]cn1)[C@@H](C)O)[C@@H](C)O)[C@@H](C)O)[C@@H](C)CC)[C@@H](C)CC)C(=O)N[C@@H](C)C(=O)N[C@@H](Cc1ccc(O)cc1)C(=O)N[C@@H](CCCCN)C(=O)N[C@H](C(=O)N[C@H](C(=O)N[C@@H](CC(=O)O)C(=O)O)[C@@H](C)O)[C@@H](C)CC
- EC50 GLP-1 (nM); cAMP AlphaScreen [1]: 0.012 nM
- EC50 GLP-2 (nM); cAMP AlphaScreen [2]: 0.26 nM

B7: Compound 17 (peptide)
peptide: H-H[Aib]EGTFTSELATILDEQAARDFIAWLIRHKITD-OH
SMILES: CC[C@H](C)[C@H](NC(=O)[C@H](Cc1ccccc1)NC(=O)[C@H](CC(=O)O)NC(=O)[C@H](CCCNC(=N)N)NC(=O)[C@H](C)NC(=O)[C@H](C)NC(=O)[C@H](CCC(N)=O)NC(=O)[C@H](CCC(=O)O)NC(=O)[C@H](CC(=O)O)NC(=O)[C@H](CC(C)C)NC(=O)[C@@H](NC(=O)[C@@H](NC(=O)[C@H](C)NC(=O)[C@H](CC(C)C)NC(=O)[C@H](CCC(=O)O)NC(=O)[C@H](CO)NC(=O)[C@@H](NC(=O)[C@H](Cc1ccccc1)NC(=O)[C@@H](NC(=O)CNC(=O)[C@H](CCC(=O)O)NC(=O)C(C)(C)NC(=O)[C@@H](N)Cc1c[nH]cn1)[C@@H](C)O)[C@@H](C)O)[C@@H](C)O)[C@@H](C)CC)C(=O)N[C@@H](C)C(=O)N[C@@H](Cc1c[nH]c2ccccc12)C(=O)N[C@@H](CC(C)C)C(=O)N[C@H](C(=O)N[C@@H](CCCNC(=N)N)C(=O)N[C@@H](Cc1c[nH]cn1)C(=O)N[C@@H](CCCCN)C(=O)N[C@H](C(=O)N[C@H](C(=O)N[C@@H](CC(=O)O)C(=O)O)[C@@H](C)O)[C@@H](C)CC)[C@@H](C)CC
- EC50 GLP-1 (nM); cAMP AlphaScreen [1]: 0.006 nM
- EC50 GLP-2 (nM); cAMP AlphaScreen [2]: 0.066 nM
